Patent US20060233785A1, “Immunointeractive molecules and uses thereof” (priority 2001, published 2006)

Legend:
[1] = Chen Z et al., 1997; cited from earlier work
basophils = assay: Basophil Activation Test; assay type: cell-based, human; details: non-latex allergic control subject N2
Description: FIG. 9 is a graphical representation of the basophil Activation Test on a latex allergic donor. Whole blood from a latex allergic, Hev b 6 sensitized subject was incubated with latex allergens. The cells were stained with FITC labelled anti-human IgE polyclonal antibodies and a PE labelled monoclonal anti-human CD63 antibody. Cells were analysed by flow cytometry defining basophils on the basis of scatter (A) and high IgE staining (B). The percentage of activated basophils expressing CD63 was determined (C).
The Basophil Activation Test was performed on whole blood from (A) non-latex allergic subject N2; (B) latex-allergic subject A7; (C) latex-allergic subject A8 and (D) latex-allergic subject A10. Antigens: latex glove extract (GE), hevein peptide (hevein), rHev b 6, mutant rHev b 6 (MU rHev b 6), sulphonated rHev b 6, (sul. rHev b 6), rHev b 5, KLH and house dust mite extract (HDM). All allergens were used at 10 μg/ml except for rHev b 6 and mutant rHev b 6 which were used at 0.1, 1 and 10 μg/ml. The cut-off for positive was set at the level of activated basophils after incubation in stimulation buffer alone (no antigen, horizontal line). A plus symbol (+) indicates antigen to which a subject has either a positive clinical history of allergy and/or a positive reading on an allergen-specific IgE ELISA.
A basophil activation assay based on flow cytometry was used to quantify the activation of basophils after incubation with various allergens. This assay was modified from Paris-Kohler A, Demoly P, Persi L, Lebel B, Bousquet J, Arnoux B. In vitro diagnosis of cypress pollen allergy by using cytofluorimetric analysis of basophils (Basotest). J Allergy Clin Immunol 2000; 105:339-45. Whole blood was collected in 6 ml heparinised vacutainers (Greiner). 100 μl aliquots were preincubated with stimulation buffer (20 mM Hepes, 133 mM NaCl, 5 mM KCl, 7 mM CaCl2, 3.5 mM MgCl2, 1 mg/ml BSA, 20 μl/ml heparin, pH 7.4) containing 2 ng/ml IL-3, for 10 min at 37° C., to increase the sensitivity of the assay. Samples were incubated for 20 min at 37° C. with 100 μl of stimulation buffer alone or stimulation buffer containing either rabbit anti-human IgE (Dako) at 1 in 500 dilution, 2 μM N-fMLP (Sigma, Mo, USA), crude allergen extracts, recombinant latex allergens or Keyhole Limpet Haemocyanin (KLH) (Sigma, Mo, USA). Basophil activation was stopped by incubating at 4° C. for 5 min. Normal goat serum (10 μl) was added to each tube to block non-specific binding of the detection antibody (goat anti-human IgE-FITC) and incubated for 10 min at 4° C. Samples were incubated with goat anti-human IgE-FITC (Caltag, Birmingham, Calif.) at a dilution of 1 in 2.5, and mouse anti-human CD63-R-Phycoerythrin (PE; Caltag, Birmingham, Calif.) at a dilution of 1 in 20, in a 20 μl volume of wash buffer (20 mM HEPES, 133 mM NaCl, 5 mM KCl, 0.27 mM EDTA, pH7.3). RBC were lysed by the addition of 2 ml FACS lysing solution (39 mM NH4Cl, 2.5 mM KHCO3, 0.2 mM EDTA) and incubation for 10 min at room temperature. Cells were centrifuged (250 g, 5 min at 4° C.), resuspended in 3 ml wash buffer, and centrifuged as before. Pellets were resuspended in 200 μl wash buffer, and analysed by flow cytometry (FACScalibur, Becton Dickinson) within 2 h of the experiment. 7AAD (Sigma, Mo, USA) was added to the samples 5 min prior to FACS analysis.

[2] = target: IgE from the sera of latex allergic, Hev b 6 sensitised subjects; assay: inhibition ELISA of IgE binding to plate-coated rHev b 6, estimated
[3] = target: serum IgE of latex-allergic subject A8; assay: inhibition ELISA of IgE binding to plate-coated rHev b 6, inhibitor at 125 µg/ml (FIG. 8D)
[4] = target: serum IgE of latex-allergic subject A7; assay: inhibition ELISA of IgE binding to plate-coated rHev b 6, soluble inhibitor 0.0016-125 µg/ml (FIG. 8B)
[5] = target: serum IgE of latex-allergic subject A6; assay: inhibition ELISA of IgE binding to plate-coated rHev b 6, soluble inhibitor 0.0016-125 µg/ml (FIG. 8C)
[6] = target: serum IgE of a latex-allergic, Hev b 5 positive subject; assay: non-specific inhibition ELISA: serum preincubated with inhibitor, IgE binding to rHev b 5 read (data not shown)
[7] = target: IgE from the sera of latex allergic, Hev b 6 sensitised subjects; assay: inhibition ELISA of IgE binding to plate-coated rHev b 6, ratio of the 30% inhibition concentrations

Row | percent inhibition (non-specific control) [6] [%] | Molecule | basophil activation (basophils) | inhibitor concentration giving 30% inhibition of IgE binding [2] [µg/mL] | further results
1 | – | Hevein: 4.7 kDa hydrophilic protein which forms the N-terminus of pro-hevein (EQCGRQAGGKLCPNNLCCSQWGWCGSTDEYCSPDHNCQSNCKD) | – | – | patients with latex allergy reacting on skin testing [1]: 81%
2 | – | hevein peptide: 43-mer hevein peptide synthesised according to the prohevein amino acid sequence by Mimotopes (EQCGRQAGGKLCPNNLCCSQWGWCGSTDEYCSPDHNCQSNCKD) | negligible | – | –
3 | – | rHev b 5: recombinant latex allergen Hev b 5 (protein) ASVEVESAATALPKNETPEVTKAEETKTEEPAAPPASEQETADATPEKEEPTAAPAEPEAPAPETEKAEEVEKIEKTEEPAPEADQTTPEEKPAEPEPVAEEEPKHETKETETEAPAAPAEGEKPAEEEKPITEAAETATTEVPVEKTEE | negligible | – | –
4 | < 20 | Recombinant Hev b 6 (rHev b 6) (protein, not shown: small tags and cut ends) EQCGRQAGGKLCPNNLCCSQWGWCGSTDEYCSPDHNCQSNCKDSGEGVGGGSASNVLATYHLYNSQDHGWDLNAASAYCSTWDANKPYSWRSKYGWTAFCGPVGAHGQSSCGKCLSVTNTGTGAKTTVRIVDQCSNGGLDLDVNVFRQLDTDGKGYERGHITVNYQFVDCGDSFNPLFSVMKSSVIN | – | 0.01 | percent inhibition [3]: 100%; percent inhibition [4]: 100%; percent inhibition [5]: 100%
5 | < 20 | mutant rHev b 6 (cysteine to alanine substitution at amino acid 3) (protein, not shown: small tags and cut ends) EQAGRQAGGKLCPNNLCCSQWGWCGSTDEYCSPDHNCQSNCKDSGEGVGGGSASNVLATYHLYNSQDHGWDLNAASAYCSTWDANKPYSWRSKYGWTAFCGPVGAHGQSSCGKCLSVTNTGTGAKTTVRIVDQCSNGGLDLDVNVFRQLDTDGKGYERGHITVNYQFVDCGDSFNPLFSVMKSSVIN | – | 125 | maximum percent inhibition [3]: 32%; fold more inhibitor required than rHev b 6 [7]: 12500 fold
